Experimental data reported in publication PMC5634629, “Heterodimerization of two pore domain K^+ channel TASK1 and TALK2 in living heterologous expression systems” (PLoS ONE, 2017).

B1: TASK1-YFP (natural protein, human, UniProt O14649 1-394, looked up)
chain: MKRQNVRTLALIVCTFTYLLVGAAVFDALESEPELIERQRLELRQQELRARYNLSQGGYEELERVVLRLKPHKAGVQWRFAGSFYFAITVITTIGYGHAAPSTDGGKVFCMFYALLGIPLTLVMFQSLGERINTLVRYLLHRAKKGLGMRRADVSMANMVLIGFFSCISTLCIGAAAFSHYEHWTFFQAYYYCFITLTTIGFGDYVALQKDQALQTQPQYVAFSFVYILTGLTVIGAFLNLVVLRFMTMNAEDEKRDAEHRALLTRNGQAGGGGGGGSAHTTDTASSTAAAGGGGFRNVYAEVLHFQSMCSCLWYKSREKLQYSIPMIIPRDLSTSDTCVEQSHSSPGGGGRYSDTPSRRCLCSGAPRSAISSVSTGLHSLSTFRGLMKRRSSV
notes: human TASK1 (KCNK3), full-length cDNA NM_002246.2; The end of the tag is read from the order in the construct's name; also called KCNK3; source: HEK293, transiently transfected, in living cells; not shown: YFP, C-terminal, kept
B2: TALK2-YFP (natural protein, human, UniProt Q96T54-3 1-332, looked up)
chain: MYRPRARAAPEGRVRGCAVPSTVLLLLAYLAYLALGTGVFWTLEGRAAQDSSRSFQRDKWELLQNFTCLDRPALDSLIRDVVQAYKNGASLLSNTTSMGRWELVGSFFFSVSTITTIGYGNLSPNTMAARLFCIFFALVGIPLNLVVLNRLGHLMQQGVNHWASRLGGTWQDPDKARWLAGSGALLSGLLLFLLLPPLLFSHMEGWSYTEGFYFAFITLSTVGFGDYVIGMNPSQRYPLWYKNMVSLWILFGMAWLALIIKLILSQLETPGRVCSCCHHSSKEDFKSQSWRQGPDREPESHSPQQGCYPEGPMGIIQHLEPSAHAAGCGKDS
notes: human TALK2 (KCNK17), full-length cDNA NM_031460.3; The end of the tag is read from the order in the construct's name; also called KCNK17; source: HEK293, transiently transfected, in living cells; not shown: YFP, C-terminal, kept

Columns and labels:
CFP-TALK2 = biological target: T1, CFP-TALK2 (human, UniProt Q96T54-3 1-332); test: FRET or BRET; acceptor photobleaching FRET (CFP donor, YFP acceptor) in HEK293 cells, confocal microscope; cDNA ratio CFP:YFP 1:1; E_FRET = percent increase in CFP emission after YFP photobleaching; details: partners not purified
T1 construct: human TALK2 (KCNK17), full-length cDNA NM_031460.3; The end of the tag is read from the order in the construct's name; also called KCNK17; source: HEK293, transiently transfected, in living cells; not shown: CFP, N-terminal, kept
T1 sequence (looked up): B2 chain

CFP-TASK1 = biological target: T2, CFP-TASK1 (human, UniProt O14649 1-394); test: as above; details: partners not purified
T2 construct: human TASK1 (KCNK3), full-length cDNA NM_002246.2; The end of the tag is read from the order in the construct's name; also called KCNK3; source: HEK293, transiently transfected, in living cells; not shown: CFP, N-terminal, kept

Row | Binder | E_FRET (CFP-TALK2) [%] | E_FRET (CFP-TASK1) [%]
1 | B1 | 7.8 | 9.8
2 | B2 | 8.6 | 
